Assay results taken from the Immune Epitope Database (IEDB).
pKd: −log10 of the molar value.

Columns and labels:
HLA-A*02:16 [1] = experiment: IEDB peptide-MHC binding, purified MHC/direct/fluorescence; filed as Kd, often an IC50 or EC50 that approximates it; ≥ and ≤ were set here for values at or beyond the usual limits of such assays; details: source organism: Listeria monocytogenes serotype 4b str. H7858
HLA-A*02:01 [2] = experiment: as above
HLA-A*69:01 = experiment: as above
HLA-A*02:50 = experiment: IEDB peptide-MHC binding, purified MHC/competitive/fluorescence; filed as Kd, often an IC50 or EC50 that approximates it; ≥ and ≤ were set here for values at or beyond the usual limits of such assays
HLA-A*02:12 = experiment: as above; details: source organism: Corynebacterium glutamicum ATCC 13032
HLA-B*18:01 [3] = experiment: as above; details: source organism: Corynebacterium glutamicum ATCC 13032
HLA-B*46:01 [4] = experiment: as above; details: source organism: Corynebacterium glutamicum ATCC 13032
HLA-A*02:16 [5] = experiment: as above; details: source organism: Corynebacterium glutamicum ATCC 13032
HLA-B*40:01 = experiment: as above
HLA-A*02:19 = experiment: as above; details: source organism: Corynebacterium glutamicum ATCC 13032
HLA-B*07:02 = experiment: as above
HLA-A*02:11 [6] = experiment: as above; details: source organism: Corynebacterium glutamicum ATCC 13032
HLA-A*03:01 [7] = experiment: as above; details: source organism: Corynebacterium glutamicum ATCC 13032
HLA-A*24:02 = experiment: as above; details: source organism: Corynebacterium glutamicum ATCC 13032
HLA-B*35:01 = experiment: as above; details: source organism: Corynebacterium glutamicum ATCC 13032
HLA-A*02:01 [8] = experiment: as above; details: source organism: Corynebacterium glutamicum ATCC 13032
HLA-B*27:05 = experiment: as above
HLA-A*02:03 = experiment: as above; details: source organism: Corynebacterium glutamicum ATCC 13032
HLA-A*30:01 = experiment: as above
HLA-A*26:01 [9] = experiment: as above; details: source organism: Corynebacterium glutamicum ATCC 13032
HLA-B*15:01 = experiment: as above; details: source organism: Corynebacterium glutamicum ATCC 13032
HLA-A*01:01 = experiment: as above
HLA-A*11:01 = experiment: as above
HLA-B*58:01 = experiment: as above
HLA-A*31:01 = experiment: as above; details: source organism: Corynebacterium glutamicum ATCC 13032
HLA-A*02:06 [10] = experiment: as above; details: source organism: Corynebacterium glutamicum ATCC 13032
HLA-A*24:03 = experiment: IEDB peptide-MHC binding, purified MHC/direct/fluorescence; filed as Kd, often an IC50 or EC50 that approximates it; ≥ and ≤ were set here for values at or beyond the usual limits of such assays; details: source organism: Yersinia pestis CA88-4125
HLA-B*18:01 [11] = experiment: as above; details: source organism: Yersinia pestis CA88-4125
HLA-B*39:01 = experiment: as above; details: source organism: Yersinia pestis CA88-4125
HLA-B*51:01 = experiment: as above; details: source organism: Yersinia pestis CA88-4125
HLA-B*46:01 [12] = experiment: as above; details: source organism: Yersinia pestis CA88-4125
HLA-A*29:02 = experiment: as above; details: source organism: Yersinia pestis CA88-4125
HLA-B*27:03 = experiment: as above; details: source organism: Yersinia pestis CA88-4125
HLA-A*02:11 [13] = experiment: as above; details: source organism: Yersinia pestis CA88-4125
HLA-A*03:01 [14] = experiment: as above; details: source organism: Yersinia pestis CA88-4125
HLA-B*57:01 = experiment: as above; details: source organism: Yersinia pestis CA88-4125
HLA-A*26:01 [15] = experiment: as above; details: source organism: Yersinia pestis CA88-4125
HLA-A*02:06 [16] = experiment: as above; details: source organism: Yersinia pestis CA88-4125
HLA-B*53:01 = experiment: IEDB peptide-MHC binding, purified MHC/competitive/fluorescence; filed as Kd, often an IC50 or EC50 that approximates it; ≥ and ≤ were set here for values at or beyond the usual limits of such assays; details: source organism: Yersinia pestis CO92
HLA-B*08:01 = experiment: as above; details: source organism: Yersinia pestis CO92
HLA-B*14:02 = experiment: as above; details: source organism: Yersinia pestis CO92
HLA-B*44:02 = experiment: as above; details: source organism: Yersinia pestis CO92
HLA-A*23:01 = experiment: as above; details: source organism: Yersinia pestis CO92
HLA-A*30:02 = experiment: as above; details: source organism: Yersinia pestis CO92
HLA-A*66:01 = experiment: as above; details: source organism: Yersinia pestis CO92
[17] = source organism: Listeria monocytogenes
[18] = source organism: Corynebacterium glutamicum ATCC 13032
[19] = source organism: Yersinia pestis CA88-4125
[20] = source organism: Yersinia pestis CO92

ALVSEVTEV
pKd (HLA-A*02:16 [1]): 8.70 | pKd (HLA-A*02:01 [2]; [17]): 7.10 | pKd (HLA-A*69:01; [17]): 5.72 | pKd (HLA-A*02:50; source organism: Listeria monocytogenes EGD-e): ≥ 10.00

HLPELIWRS
pKd (HLA-A*02:12): 6.10 | pKd (HLA-B*18:01 [3]): ≤ 4.70 | pKd (HLA-A*02:50; [18]): 7.87 | pKd (HLA-B*46:01 [4]): ≤ 4.70 | pKd (HLA-A*02:16 [5]): 7.01 | pKd (HLA-B*40:01; [18]): ≤ 4.70 | pKd (HLA-A*02:19): ≤ 4.70 | pKd (HLA-B*07:02; [18]): ≤ 4.70 | pKd (HLA-A*02:11 [6]): 7.57 | pKd (HLA-A*03:01 [7]): ≤ 4.70 | pKd (HLA-A*24:02): ≤ 4.70 | pKd (HLA-B*35:01): ≤ 4.70 | pKd (HLA-A*02:01 [8]): 6.01 | pKd (HLA-B*27:05; [18]): ≤ 4.70 | pKd (HLA-A*02:03): 6.02 | pKd (HLA-A*30:01; [18]): ≤ 4.70 | pKd (HLA-A*26:01 [9]): ≤ 4.70 | pKd (HLA-B*15:01): ≤ 4.70 | pKd (HLA-A*01:01; [18]): ≤ 4.70 | pKd (HLA-A*11:01; [18]): ≤ 4.70 | pKd (HLA-B*58:01; [18]): ≤ 4.70 | pKd (HLA-A*31:01): ≤ 4.70 | pKd (HLA-A*02:06 [10]): 8.66

QQRPDLILV
pKd (HLA-A*24:03): ≤ 4.70 | pKd (HLA-B*18:01 [11]): ≤ 4.70 | pKd (HLA-B*39:01): ≤ 4.70 | pKd (HLA-B*51:01): ≤ 4.70 | pKd (HLA-B*46:01 [12]): ≤ 4.70 | pKd (HLA-A*29:02): 7.05 | pKd (HLA-B*27:03): ≤ 4.70 | pKd (HLA-A*02:11 [13]): ≤ 4.70 | pKd (HLA-A*03:01 [14]): ≤ 4.70 | pKd (HLA-A*02:01 [2]; [19]): 5.46 | pKd (HLA-B*57:01): ≤ 4.70 | pKd (HLA-A*26:01 [15]): ≤ 4.70 | pKd (HLA-A*69:01; [19]): ≤ 4.70 | pKd (HLA-A*02:06 [16]): 6.77 | pKd (HLA-B*53:01): ≤ 5.30 | pKd (HLA-B*08:01): ≤ 5.30 | pKd (HLA-B*14:02): ≤ 5.30 | pKd (HLA-B*40:01; [20]): ≤ 5.30 | pKd (HLA-B*07:02; [20]): ≤ 5.30 | pKd (HLA-B*44:02): ≤ 5.30 | pKd (HLA-A*23:01): ≤ 5.30 | pKd (HLA-B*27:05; [20]): ≤ 5.30 | pKd (HLA-A*30:01; [20]): ≤ 5.30 | pKd (HLA-A*01:01; [20]): ≤ 5.30 | pKd (HLA-A*11:01; [20]): ≤ 5.30 | pKd (HLA-B*58:01; [20]): ≤ 5.30 | pKd (HLA-A*30:02): ≤ 4.70 | pKd (HLA-A*66:01): ≤ 5.30
